Measured values taken from patent publication US20250145729A1 (DENALI THERAPEUTICS, published 2025).

Experiments:
[1] = molecular target: T1, circularly permuted human TfR apical domain (human); test: Biacore SPR
T1 construct: TfR residues 326-379 stand N-terminal to 194-296, loop 297-325 deleted; also called huTfR Apical Domain
T1 chain: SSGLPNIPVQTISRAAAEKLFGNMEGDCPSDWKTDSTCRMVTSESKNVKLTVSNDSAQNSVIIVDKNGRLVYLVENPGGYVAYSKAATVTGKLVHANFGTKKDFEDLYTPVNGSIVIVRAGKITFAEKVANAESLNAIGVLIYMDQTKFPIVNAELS

human CD98hc = molecular target: T2, human CD98hc (human, UniProt P08195 109-529); test: SPR (Biacore)
T2 construct: also called huCD98hc; CD98 heavy chain
T2 sequence: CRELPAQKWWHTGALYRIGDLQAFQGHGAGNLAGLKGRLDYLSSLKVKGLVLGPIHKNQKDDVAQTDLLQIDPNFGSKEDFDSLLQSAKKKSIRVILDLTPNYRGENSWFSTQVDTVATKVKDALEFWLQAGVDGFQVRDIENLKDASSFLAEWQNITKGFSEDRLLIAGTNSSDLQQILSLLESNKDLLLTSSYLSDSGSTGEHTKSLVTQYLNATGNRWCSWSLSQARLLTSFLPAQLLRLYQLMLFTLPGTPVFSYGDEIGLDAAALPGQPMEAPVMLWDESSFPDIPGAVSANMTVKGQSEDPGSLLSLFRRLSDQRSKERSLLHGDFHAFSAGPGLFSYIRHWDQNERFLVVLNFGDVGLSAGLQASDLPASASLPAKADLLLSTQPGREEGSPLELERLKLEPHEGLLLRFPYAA
In short: (§1)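 The values are Kd for CD98hc binding by engineered Fc polypeptides, determined by surface plasmon resonance on a Biacore instrument. Clones were tested as Fc-Fab fusions carrying anti-BACE1 Fabs, in bivalent form or in a monovalent knob/hole form with the CD98hc-binding site only on the knob chain.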

cyno CD98hc = molecular target: T3, cyno CD98hc (cynomolgus monkey); test: SPR (Biacore)
T3 construct: also called cynomolgus CD98hc; cyCD98hc
In short: as §1

B1: 6.5.11.5.42.2.d1 (Fc fusion)
chain: APELLGGPSVFLFPPKPKDTLMISRTPEVTCVVVDVSHEDPEVKFNWYVDGVEVHNAKTKPREEQYNSTYRVVSVLTVLHQDWLNGKEYKCKVSNKALPAPIEKTISKAKGQPREPQVYTLPPSRDELTKNQVSLTCLVKGFYPSDIAVEWFSNGSKETNYKTTPPVLDSDGSFFLYSKLTVDKSRWQQGNLFACEVMHEALHNHYTYKLLSLSPGK
For B1, the Kd [1] was 3600 nM.

B2: 6.5.11.5.42.2.d3 (Fc fusion)
chain: APELLGGPSVFLFPPKPKDTLMISRTPEVTCVVVDVSHEDPEVKFNWYVDGVEVHNAKTKPREEQYNSTYRVVSVLTVLHQDWLNGKEYKCKVSNKALPAPIEKTISKAKGQPREPQVYTLPPSRDELTKNQVSLTCLVKGFYPSDIAVEWFSDGSPETNYKTTPPVLDSDGSFFLYSKLTVDKSRWQQGNLFACEVMHEALHNHYTYKLLSLSPGK
In the case of B2, the Kd [1] is reported as 3500 nM.

B3: 6.5.11.5.42.2.d10 (Fc fusion)
chain: APELLGGPSVFLFPPKPKDTLMISRTPEVTCVVVDVSHEDPEVKFNWYVDGVEVHNAKTKPREEQYNSTYRVVSVLTVLHQDWLNGKEYKCKVSNKALPAPIEKTISKAKGQPREPQVYTLPPSRDELTKNQVSLTCLVKGFYPSDIAVEWFSDGSTETNYKTTPPVLDSDGSFFLYSKLTVDKSRWQQGNLFACEVMHEALHNHYTYKLLSLSPGK
B3 showed a Kd [1] of 1800 nM.

B4: 6.5.11.5.42.2.d9 (Fc fusion)
chain: APELLGGPSVFLFPPKPKDTLMISRTPEVTCVVVDVSHEDPEVKFNWYVDGVEVHNAKTKPREEQYNSTYRVVSVLTVLHQDWLNGKEYKCKVSNKALPAPIEKTISKAKGQPREPQVYTLPPSRDELTKNQVSLTCLVKGFYPSDIAVEWFSDGAKETNYKTTPPVLDSDGSFFLYSKLTVDKSRWQQGNLFACEVMHEALHNHYTYKLLSLSPGK
Binder B4 has a Kd [1] of 2000 nM.

B5: 6.5.11.5.42.2.d2 (Fc fusion)
chain: APELLGGPSVFLFPPKPKDTLMISRTPEVTCVVVDVSHEDPEVKFNWYVDGVEVHNAKTKPREEQYNSTYRVVSVLTVLHQDWLNGKEYKCKVSNKALPAPIEKTISKAKGQPREPQVYTLPPSRDELTKNQVSLTCLVKGFYPSDIAVEWFSDGQKETNYKTTPPVLDSDGSFFLYSKLTVDKSRWQQGNLFACEVMHEALHNHYTYKLLSLSPGK
Binder B5 has a Kd [1] of 3500 nM.

B6: 6.5.11.5.42.2.d4 (Fc fusion)
chain: APELLGGPSVFLFPPKPKDTLMISRTPEVTCVVVDVSHEDPEVKFNWYVDGVEVHNAKTKPREEQYNSTYRVVSVLTVLHQDWLNGKEYKCKVSNKALPAPIEKTISKAKGQPREPQVYTLPPSRDELTKNQVSLTCLVKGFYPSDIAVEWFSDGGKETNYKTTPPVLDSDGSFFLYSKLTVDKSRWQQGNLFACEVMHEALHNHYTYKLLSLSPGK
B6 was tested, and the Kd [1] was 8700 nM.

B7: 6.5.11.5.42.2.d6 (Fc fusion)
chain: APELLGGPSVFLFPPKPKDTLMISRTPEVTCVVVDVSHEDPEVKFNWYVDGVEVHNAKTKPREEQYNSTYRVVSVLTVLHQDWLNGKEYKCKVSNKALPAPIEKTISKAKGQPREPQVYTLPPSRDELTKNQVSLTCLVKGFYPSDIAVEWFSFGSKETNYKTTPPVLDSDGSFFLYSKLTVDKSRWQQGNLFACEVMHEALHNHYTYKLLSLSPGK
B7 showed a Kd [1] of 24000 nM.

B8: 6.5.11.5.42.2.d8 (Fc fusion)
chain: APELLGGPSVFLFPPKPKDTLMISRTPEVTCVVVDVSHEDPEVKFNWYVDGVEVHNAKTKPREEQYNSTYRVVSVLTVLHQDWLNGKEYKCKVSNKALPAPIEKTISKAKGQPREPQVYTLPPSRDELTKNQVSLTCLVKGFYPSDIAVEWFSDASKETNYKTTPPVLDSDGSFFLYSKLTVDKSRWQQGNLFACEVMHEALHNHYTYKLLSLSPGK
B8 was tested, and the Kd [1] was 4400 nM.

B9: 6.5.11.5.42.2.d7 (Fc fusion)
chain: APELLGGPSVFLFPPKPKDTLMISRTPEVTCVVVDVSHEDPEVKFNWYVDGVEVHNAKTKPREEQYNSTYRVVSVLTVLHQDWLNGKEYKCKVSNKALPAPIEKTISKAKGQPREPQVYTLPPSRDELTKNQVSLTCLVKGFYPSDIAVEWFSAGSKETNYKTTPPVLDSDGSFFLYSKLTVDKSRWQQGNLFACEVMHEALHNHYTYKLLSLSPGK
Binder B9 has a Kd [1] of 29000 nM.

B10: LLB2.10.8.12.5.N (Fc fusion)
chain: APELLGGPSVFLFPPKPKDTLMISRTPEVTCVVVDVSHEDPEVKFNWYVDGVEVHNAKTKPREEQYNSTYRVVSVLTVLHQDWLNGKEYKCKVSNKALPAPIEKTISKAKGQPREPQVYTLPPSRDELTKNQVSLTCLVKGFYPSDIAVLWNSHYELENNYKTTPPVLDSDGSFFLYSKLTVDKSRWQQGNIFACNVYHEALHNHYTFKNLALSPGK
notes: Fc part only; changes read against LLB2-10-8
In the case of B10, the Kd (human CD98hc) is reported as 1500 nM and the Kd (cyno CD98hc) is reported as 4700 nM.

B11: LLS2.33.2 (Fc fusion)
chain: APELLGGPSVFLFPPKPKDTLMISRTPEVTCVVVDVSHEDPEVKFNWYVDGVEVHNAKTKPREEQYNSTYRVVSVLTVLHQDWLNGKEYKCKVSNKALPAPIEKTISKAKGQPREPQVYTLPPSRDELTKNQVSLTCLVKGFYPSDIAVAWNSKFELENNYKTTPPVLDSDGSFFLYSKLTVDKSRWQQGNLFACNVWHEALHNHYTFKNLSLSPGK
notes: Fc part only; also called LLB2.33.2
In the case of B11, the Kd (human CD98hc) is reported as 2000 nM and the Kd (cyno CD98hc) is reported as 4500 nM.

B12: LLS2.C.4 (Fc fusion)
chain: APELLGGPSVFLFPPKPKDTLMISRTPEVTCVVVDVSHEDPEVKFNWYVDGVEVHNAKTKPREEQYNSTYRVVSVLTVLHQDWLNGKEYKCKVSNKALPAPIEKTISKAKGQPREPQVYTLPPSRDELTKNQVSLTCLVKGFYPSDIAVAWNSRFELENNYKTTPPVLDSDGSFFLYSKLTVDKSRWQQGNIFACNVWHEALHNHYTFKNLSLSPGK
notes: Fc part only; also called LLB2.C.4
In the case of B12, the Kd (human CD98hc) is reported as 700 nM and the Kd (cyno CD98hc) is reported as 2700 nM.

B13: LLB2.10.8.14.4.N (Fc fusion)
chain: APELLGGPSVFLFPPKPKDTLMISRTPEVTCVVVDVSHEDPEVKFNWYVDGVEVHNAKTKPREEQYNSTYRVVSVLTVLHQDWLNGKEYKCKVSNKALPAPIEKTISKAKGQPREPQVYTLPPSRDELTKNQVSLTCLVKGFYPSDIAVLWNSRFVLENNYKTTPPVLDSDGSFFLYSKLTVDKSRWQQGNIFACNVYHEALHNHRTFKNLALSPGK
notes: as for B10
B13 gave a Kd (human CD98hc) of 350 nM and a Kd (cyno CD98hc) of 2360 nM.

B14: LLB2.C.3 (Fc fusion)
chain: APELLGGPSVFLFPPKPKDTLMISRTPEVTCVVVDVSHEDPEVKFNWYVDGVEVHNAKTKPREEQYNSTYRVVSVLTVLHQDWLNGKEYKCKVSNKALPAPIEKTISKAKGQPREPQVYTLPPSRDELTKNQVSLTCLVKGFYPSDIAVVWNSQYELENNYKTTPPVLDSDGSFFLYSKLTVDKSRWQQGNVFACNVWHEALHNHYTFKNLSLSPGK
notes: Fc part only
For B14, the Kd (human CD98hc) was 1000 nM and the Kd (cyno CD98hc) was 3500 nM.

B15: LLS2.C.15 (Fc fusion)
chain: APELLGGPSVFLFPPKPKDTLMISRTPEVTCVVVDVSHEDPEVKFNWYVDGVEVHNAKTKPREEQYNSTYRVVSVLTVLHQDWLNGKEYKCKVSNKALPAPIEKTISKAKGQPREPQVYTLPPSRDELTKNQVSLTCLVKGFYPSDIAVKWNSRFQLENNYKTTPPVLDSDGSFFLYSKLTVDKSRWQQGNLFACNVWHEALHNHYTFKNLSLSPGK
notes: Fc part only; also called LLB2.C.15
B15 showed a Kd (human CD98hc) of 620 nM and a Kd (cyno CD98hc) of 2200 nM.

B16: LLB2.10.8.14.3.N (Fc fusion)
chain: APELLGGPSVFLFPPKPKDTLMISRTPEVTCVVVDVSHEDPEVKFNWYVDGVEVHNAKTKPREEQYNSTYRVVSVLTVLHQDWLNGKEYKCKVSNKALPAPIEKTISKAKGQPREPQVYTLPPSRDELTKNQVSLTCLVKGFYPSDIAVLWNSRFVLENNYKTTPPVLDSDGSFFLYSKLTVDKSRWQQGNIFACNVYHEALHNHRTFKNLRLSPGK
notes: as for B10
Binder B16 has a Kd (human CD98hc) of 270 nM and a Kd (cyno CD98hc) of 1900 nM.

B17: LLS2.33.5 (Fc fusion)
chain: APELLGGPSVFLFPPKPKDTLMISRTPEVTCVVVDVSHEDPEVKFNWYVDGVEVHNAKTKPREEQYNSTYRVVSVLTVLHQDWLNGKEYKCKVSNKALPAPIEKTISKAKGQPREPQVYTLPPSRDELTKNQVSLTCLVKGFYPSDIAVQWSSQYELENNYKTTPPVLDSDGSFFLYSKLTVDKSRWQQGNVFACNVWHEALHNHYTFKNLSLSPGK
notes: Fc part only; also called LLB2.33.5
B17 was tested, and the Kd (human CD98hc) was 1700 nM and the Kd (cyno CD98hc) was 6900 nM.

B18: LLS2.43.5 (Fc fusion)
chain: APELLGGPSVFLFPPKPKDTLMISRTPEVTCVVVDVSHEDPEVKFNWYVDGVEVHNAKTKPREEQYNSTYRVVSVLTVLHQDWLNGKEYKCKVSNKALPAPIEKTISKAKGQPREPQVYTLPPSRDELTKNQVSLTCLVKGFYPSDIAVMWNSQYELENNYKTTPPVLDSDGSFFLYSKLTVDKSRWQQGNVFACNVHHEALHNHYTFKNLSLSPGK
notes: Fc part only; also called LLB2.43.5
In the case of B18, the Kd (human CD98hc) is reported as 1200 nM and the Kd (cyno CD98hc) is reported as 5900 nM.

B19: LLS2.33.8 (Fc fusion)
chain: APELLGGPSVFLFPPKPKDTLMISRTPEVTCVVVDVSHEDPEVKFNWYVDGVEVHNAKTKPREEQYNSTYRVVSVLTVLHQDWLNGKEYKCKVSNKALPAPIEKTISKAKGQPREPQVYTLPPSRDELTKNQVSLTCLVKGFYPSDIAVAWNSKFRLENNYKTTPPVLDSDGSFFLYSKLTVDKSRWQQGNLFACNVWHEALHNHYTFKNLSLSPGK
notes: Fc part only; also called LLB2.33.8
Work on B19 yielded a Kd (human CD98hc) of 2200 nM and a Kd (cyno CD98hc) of 8200 nM.
